Test results: publication PMC11984658 (Journal of structural biology, 2024)

Experiments:
[1] = target: the molecule itself; test: SEC-MALS
[2] = target: the molecule itself; test: SAXS

Protein | stoichiometry N [1] | stoichiometry N [2]
RAD52(1–303) (domain or fragment, human, UniProt P43351 1-303, looked up) MSGTEEAILGGRDSHPAAGGGSVLCFGQCQYTAEEYQAIQKALRQRLGPEYISSRMAGGGQKVCYIEGHRVINLANEMFGYNGWAHSITQQNVDFVDLNNGKFYVGVCAFVRVQLKDGSYHEDVGYGVSEGLKSKALSLEKARKEAVTDGLKRALRSFGNALGNCILDKDYLRSLNKLPRQLPLEVDLTKAKRQDLEPSVEEARYNSCRPNMALGHPQLQQVTSPSRPSHAVIPADQDCSSRSLSSSAVESEATHQRKLRQKQLQQQFRERMEKQQVRVSTPSAEKSEAAPPAPPVTHSTPVT | 9.5 subunits | –
RAD52(1–212) (domain or fragment, human, UniProt P43351 1-212, looked up) MSGTEEAILGGRDSHPAAGGGSVLCFGQCQYTAEEYQAIQKALRQRLGPEYISSRMAGGGQKVCYIEGHRVINLANEMFGYNGWAHSITQQNVDFVDLNNGKFYVGVCAFVRVQLKDGSYHEDVGYGVSEGLKSKALSLEKARKEAVTDGLKRALRSFGNALGNCILDKDYLRSLNKLPRQLPLEVDLTKAKRQDLEPSVEEARYNSCRPNM | 9.7 subunits | 10 subunits
